B1: 抗ヒトFRラットモノクローナル抗体(クローン名:No.5) (antibody, V domains shown)
VH: QVQLKESGPGLVQPSQTLSLTCTVSGFSLTSNSVSWVRQPPGKGLEWMGAIWSGGSTDYNSALKSRLSISKDTSKSQVFLKMNSLQTEDTAIYFCTRYYGYTYFAYWGQGVMVTVSS
VL: DIQMTQSPASLSASLEEIVTITCQASQDIGNWLAWYQQKPGKSPQLLIYDAIRLADGVPSRFSGSRSGTQYSLKISRLQVEDIGDYYCQQGQSNPRTFGGGTKLELK
notes: Rat monoclonal antibody purified from hybridoma supernatant; the constant regions are not; also called 抗体No.5
B2: ビオチン化No.2抗体 (antibody, V domains shown)
VH: QVQLQQSGAELAKPGSSVKISCKASGYTFTTYYINWIKQTTGQGLDYIGYINTRSGGTNYNEKFKGKATLTVDKSSSTAFMQLSSLTPDDSAVYYCAREGIIRGAEVMDAWGQGASVTVSS
VL: DIQMTQTPSSMPASLGERVTISCRASQGISNYLNRYQQKPDGTIKLLIYYTSNLQSGVPSRFSGSGSGTDYSLTISSLEPEDFAMYYCQQYDSSPPTFGGGTKLELK
modifications: biotinylated with Sulfo-NHS-LC-Biotin; sites not stated
notes: also called 検出抗体; ビオチン化抗FRβ抗体
B3: 抗ヒトFRβラットモノクローナル抗体(クローン名:No.2) (antibody, V domains shown)
VH: B2 VH
VL: B2 VL
notes: Rat monoclonal antibody purified from hybridoma supernatant; the constant regions are not; also called 抗体No.2

Experiments:
ヒトFRα(FRα発現KB細胞) = biological target: T1, ヒトFRα(FRα発現KB細胞) (human, UniProt P15328 25-234); assay: Hybridoma screening on cells expressing FRβ and on KB cells expressing FRα
T1 construct: whole, on cells
T1 sequence (P15328 25-234): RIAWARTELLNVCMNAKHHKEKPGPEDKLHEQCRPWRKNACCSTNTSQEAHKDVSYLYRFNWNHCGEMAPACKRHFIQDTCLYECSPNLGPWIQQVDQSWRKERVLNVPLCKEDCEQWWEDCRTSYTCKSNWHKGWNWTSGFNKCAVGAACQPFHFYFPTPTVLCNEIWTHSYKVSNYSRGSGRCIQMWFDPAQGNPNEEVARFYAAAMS

ヒトFRβ(FRβ発現B300−19細胞) [1] = biological target: T2, ヒトFRβ(FRβ発現B300−19細胞) (human, UniProt P14207 17-230); assay: Flow cytometry on B300-19 cells expressing FRβ, antibody at 1 μg/ml, APC anti-rat detection
T2 construct: whole, on cells; also called 葉酸リセプターβ
T2 sequence (P14207 17-230): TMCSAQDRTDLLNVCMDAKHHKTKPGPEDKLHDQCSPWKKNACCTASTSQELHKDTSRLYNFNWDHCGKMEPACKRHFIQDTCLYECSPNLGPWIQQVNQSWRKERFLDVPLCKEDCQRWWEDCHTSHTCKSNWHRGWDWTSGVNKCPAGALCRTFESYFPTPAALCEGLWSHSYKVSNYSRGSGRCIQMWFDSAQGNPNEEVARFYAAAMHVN

ヒトFRβ(FRβ発現B300−19細胞) [2] = biological target: T2, ヒトFRβ(FRβ発現B300−19細胞); assay: Flow cytometry on B300-19 cells expressing FRβ, in the presence of F(ab')2 No.5, APC-streptavidin detection

Binder | binding result (ヒトFRα(FRα発現KB細胞)) | binding result (ヒトFRβ(FRβ発現B300−19細胞) [1]) | binding result (ヒトFRβ(FRβ発現B300−19細胞) [2])
B1 | binds | binds | 
B2 |  |  | binds
B3 |  | binds | 
